# According to patent US12187772 (Regeneron, dated 2025):
# Molecular target: T1, IL10 receptor (IL10 receptor subunit alpha IL10Ra and beta subunit IL10Rb) on Ramos/STAT3-Luc and … (UniProt Q13651 22-578; Q08334 20-325, limits assumed)
# T1 sequence (looked up) 1: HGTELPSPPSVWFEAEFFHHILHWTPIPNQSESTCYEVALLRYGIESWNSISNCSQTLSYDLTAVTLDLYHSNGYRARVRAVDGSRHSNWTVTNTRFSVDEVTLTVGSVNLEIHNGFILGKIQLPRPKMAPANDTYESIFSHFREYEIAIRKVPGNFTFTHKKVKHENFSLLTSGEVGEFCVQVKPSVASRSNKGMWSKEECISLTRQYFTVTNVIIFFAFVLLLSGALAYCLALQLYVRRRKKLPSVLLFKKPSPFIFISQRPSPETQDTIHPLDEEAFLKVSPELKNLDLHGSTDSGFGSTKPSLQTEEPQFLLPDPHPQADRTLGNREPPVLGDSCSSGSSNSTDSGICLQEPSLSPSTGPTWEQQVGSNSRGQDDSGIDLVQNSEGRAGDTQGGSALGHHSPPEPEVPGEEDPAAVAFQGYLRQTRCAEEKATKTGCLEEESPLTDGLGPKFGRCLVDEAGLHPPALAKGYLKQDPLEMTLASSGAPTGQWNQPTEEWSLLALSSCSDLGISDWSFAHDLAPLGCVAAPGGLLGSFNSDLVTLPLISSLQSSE
# T1 sequence (looked up) 2: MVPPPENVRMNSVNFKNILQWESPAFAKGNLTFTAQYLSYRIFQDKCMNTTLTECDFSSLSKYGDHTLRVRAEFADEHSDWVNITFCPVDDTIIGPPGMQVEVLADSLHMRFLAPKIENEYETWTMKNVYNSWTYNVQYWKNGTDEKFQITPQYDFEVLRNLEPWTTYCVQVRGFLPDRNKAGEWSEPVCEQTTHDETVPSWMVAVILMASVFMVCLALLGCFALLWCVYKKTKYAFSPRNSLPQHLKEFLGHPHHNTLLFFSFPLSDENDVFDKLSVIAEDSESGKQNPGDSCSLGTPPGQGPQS
# Experiment: cell-based or functional assay
binder,measurement,value
IL10M4 (Fc-2XG4S-hIL10; Fc is IgG4s) (Fc fusion) ESKYGPPCPPCPAPPVAGPSVFLFPPKPKDTLMISRTPEVTCVVVDVSQEDPEVQFNWYVDGVEVHNAKTKPREEQFNSTYRVVSVLTVLHQDWLNGKEYKCKVSNKGLPSSIEKTISKAKGQPREPQVYTLPPSQEEMTKNQVSLTCLVKGFYPSDIAVEWESNGQPENNYKTTPPVLDSDGSFFLYSRLTVDKSRWQEGNVFSCSVMHEALHNHYTQKSLSLSLGKGGGGSGGGGSSPGQGTQSENSCTHFPGNLPNMLRDLRDAFSRVKTFFQMKDQLDNLLLKESLLEDFKGYLGCQALSEMIQFYLEEVMPQAENQDPDIKAHVNSLGENLKTLRLRLRRCHRFLPCENKSKAVEQVKNAFNKLQEKGIYKAMSEFDIFINYIEAYMTMKIRN,"EC50 of luciferase activity, Ramos/Stat3-Luc reporter cells",115 pM
same,"EC50 of luciferase activity, TF-1/Stat3-Luc reporter cells",138 pM
same,"Fold Induction of luciferase activity, Ramos/Stat3-Luc reporter cells",4.06 fold
same,"Fold Induction of luciferase activity, TF-1/Stat3-Luc reporter cells",3.78 fold
